Source: US20210380702A1 (Regeneron, published 2021)
Numbering of substitutions follows the chain as printed.

B1: H2aM8306N (antibody, mouse IgG2, V domains shown)
VH: EVQLVESGGGLVQPGGSLRLSCAASGFTFSRFWMSWVRQAPGKGLEWVANINQDGTEKYYVDSVKGRFTISRDNAKNSLYLQMNSLRAGDTAVYYCANTYYDFWSGHFDYWGQGTLVTVSS
VL: not shown
notes: also called H2M8306N
B2: H2aM8309N (antibody, mouse IgG2, V domains shown)
VH: not shown
VL: DIQMTQSPSSLSASVGDRVTITCRTSQGIRNDLGWYQQKPGKAPKRLIYAASSLQSGVPSRFSGSGSGTEFTLTISSLQPEDFATYYCLQHNNYPYTFGQGTKLEIK
notes: also called H2M8309N
B3: H2aM8310N (antibody, mouse IgG2, V domains shown)
VH: QVQLVQSGAEVKKPGASVQVSCKASGYSFTGYYIHWVRQAPGQGLEWMGWINPNSGTKKYAHKFQGRVTMTRDTSIDTAYMILSSLISDDTAVYYCARDEDWNFGSWFDSWGQGTLVTVSS
VL: DIVMTQTPLSSPVTLGQPASISCRSSQTLVHGDGNTYLSWIQQRPGQPPRLLIYKVSNQFSGVPDRFSGSGAGTDFTLKISRVEAEDVGLYFCMQATHFPITFGQGTRLEIK
notes: also called H2M8310N
B4: H2aM8312N (antibody, mouse IgG2, V domains shown)
VH: QVHLVQSGAEVKKPGASVKVSCKASGYTFTGYYIHWVRQAPGHGLEWMGWLNPNTGTTKYIQNFQGRVTMTRDTSSSTAYMELTRLRSDDTAVYYCARDEDWNYGSWFDTWGQGTLVTVSS
VL: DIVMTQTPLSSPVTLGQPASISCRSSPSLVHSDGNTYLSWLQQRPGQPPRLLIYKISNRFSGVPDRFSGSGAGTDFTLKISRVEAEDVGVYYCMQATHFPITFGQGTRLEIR
notes: also called H2M8312N
B5: H2aM8314N (antibody, mouse IgG2, V domains shown)
VH: EVQLVESGGGVVRPGGSLRLSCAASGFTFDDYGMTWVRQAPGRGLEWVSGIHWHGKRTGYADSVKGRFTISRDNAKKSLYLQMNSLKGEDTALYHCVRGGMSTGDWFDPWGQGTLVIVSS
VL: DIQMTQSPSSLSASLGDRVTITCRASQSINSYLNWYQQKPGKAPKLLIYVASSLQSGVPSRFSGSGSGTEFTLTISNLQPEDFATYYCQQSYSTPPITFGQGTRLEIK
notes: also called H2M8314N
B6: H2aM8317N (antibody, mouse IgG2, V domains shown)
VH: EVQLVESGGGLVQPGGSLRLSCAASGFTVGSNYMNWVRQAPGKGLEWVSVIYSGGSTYYADSVKGRFTISRLTSKNTLYLQMSSLRPEDTAVYYCARGIRGLDVWGQGTTVTVSS
VL: B5 VL with L15V, S28T, S31I, K42R, K45R, V50A, E70D, N77S, Q89H
notes: also called H2M8317N
B7: H2aM8321N (antibody, mouse IgG2, V domains shown)
VH: EERLVESGGDLVQPGGSLRLSCAASGITVGTNYMNWVRQAPGKGLEWVSVISSGGNTHYADSVKGRFIMSRQTSKNTLYLQMNSLETEDTAVYYCARGIRGLDVWGQGTMVTVSS
VL: B5 VL with L15V, I29M, N30S, K42R, Y49F, V50A, E70D, N77S
notes: also called H2M8321N
B8: H2aM8323N (antibody, mouse IgG2, V domains shown)
VH: QVQLVQSGAEVKMPGSSVRVSCKASGGIFSSSTISWVRQAPGQGLEWMGEIIPVFGTVNYAQKFQDRVIFTADESTTTAYMELSSLKSGDTAVYFCARNWGLGSFYIWGQGTMVTVSS
VL: EIVLTQSPGTLSLSPGERATLSCRASQSFNFNYLAWYQQKPGQAPRLLIYGASSRATGIPDRFSGSGSGTDFTLTINRLEPEDFGVFYCQQYESAPWTFGQGTKVEIK
notes: also called H2M8323N
B9: H1H9329P (antibody, human IgG1, V domains shown)
VH: EVQLVESGGGLVQSGGSLRLSCAASGFTFSSYWMSWVRQAPGKGLEWVANIKQDGSEKYYVDSVKGRFTISRDNAKNSLYLQMNSLRADDTAVYYCARDDIVVVPAPMGYYYYYFGMDVWGQGTTVTVSS
VL: B2 VL with T25A, N93S
B10: H1H9336P (antibody, human IgG1, V domains shown)
VH: EVQLVESGGGLVQPGRSLRLSCAASGFTFDDFAMHWVRQAPGKGLEWVSGISWTGGNMDYANSVKGRFTISREDAKNSLYLQMNSLRAADTALYYCVKDIRGIVATGGAFDIWGRGTMVTVSS
VL: DIQMTQSPSSLSASVGDRVTISCRASQTISTYLNWFQQKPGKAPKLLIYVVSSLQSGVPSRFSGSGSGTDFTLTISSLQPEDFATYYCQQSYSTPFTFGPGTKVDIK
B11: H1H9345P2 (antibody, human IgG1, V domains shown)
VH: EVQLVESGGGLVQPGGSLRLSCAASGFTISTNYMNWVRQAPGKGLEWVAVIYSSGSTYYIDSVKGRFTISRLTSKNTVYLQMSSLNSEDTAVYYCARGIRGFDIWGQGTMVTVSS
VL: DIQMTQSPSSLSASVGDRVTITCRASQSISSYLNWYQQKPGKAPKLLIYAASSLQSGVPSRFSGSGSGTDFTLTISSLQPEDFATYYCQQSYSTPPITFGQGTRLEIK
B12: H1H9354P2 (antibody, human IgG1, V domains shown)
VH: EVQLVESGGGLVQPGGSLRLSCEASGFTVGVNHMNWVRQAPGKGLEWVSVIFSSGRTFYGDYVKGRLTIFRQTSQNTVYLQMNSLRSEDTAIYYCARGIGGLDIWGRGTMVTVSS
VL: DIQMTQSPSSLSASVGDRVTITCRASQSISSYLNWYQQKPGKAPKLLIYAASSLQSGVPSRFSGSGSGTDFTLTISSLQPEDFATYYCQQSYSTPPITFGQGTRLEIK
B13: H1H9364P2 (antibody, human IgG1, V domains shown)
VH: EVQLVESGGGLVQPGRSLRLSCAASGFTFDDYALHWVRQAPGKGLEWVSGISWTGGTIDYADSVKGRFTISRDNAKNSLYLQMSSLRTEDTAIYYCTRDIRGNWKYGGWFDPWGQGTLVTVSS
VL: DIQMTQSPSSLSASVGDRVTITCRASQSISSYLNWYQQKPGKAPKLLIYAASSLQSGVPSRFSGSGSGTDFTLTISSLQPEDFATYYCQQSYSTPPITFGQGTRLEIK
B14: H1H9382P2 (antibody, human IgG1, V domains shown)
VH: EVQLVESGGGLVQPGGSLRLSCAASGFTVGTNFMNWVRQAPGKGLEWVSAIYSGGTANYADSVKGRFTISRDTSRNTLYLQMNSLRTEDTAVYYCARGGGMDVWGQGTTVTVSS
VL: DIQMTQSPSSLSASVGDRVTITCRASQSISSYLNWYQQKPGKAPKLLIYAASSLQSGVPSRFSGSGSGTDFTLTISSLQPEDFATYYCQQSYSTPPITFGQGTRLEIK
B15: H1H9387P2 (antibody, human IgG1, V domains shown)
VH: QVQLVQSGAEVKKPGSSVKVSCKASGGTFNTYVLSWVRQAPGQGLEWMGEIIPILGAANYAQNFQGRVTFTTDESTNTAYMDLSSLRSEDTAVYYCARDRTSGGFDPWGQGTLVTVSS
VL: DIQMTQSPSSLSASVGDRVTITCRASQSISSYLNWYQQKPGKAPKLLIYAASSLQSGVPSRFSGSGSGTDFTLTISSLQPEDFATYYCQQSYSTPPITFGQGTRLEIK
B16: H1H9396P2 (antibody, human IgG1, V domains shown)
VH: QVQLVQSGAEVEKPGASVKVSCKASGYIFTHYGISWVRQAPGQGLEWVGWISPYNGYTDYAQKLQGRVTLTTDTSTTTAYMELRNLRSDDTAMYYCSRGRGPYWSFDLWGRGTLVTVSS
VL: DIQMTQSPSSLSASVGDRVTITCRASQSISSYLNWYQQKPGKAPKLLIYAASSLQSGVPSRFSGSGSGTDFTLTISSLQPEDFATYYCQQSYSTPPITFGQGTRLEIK
B17: H2aM8306N (antibody, mouse IgG2, V domains shown)
VH: B1 VH
VL: not shown
notes: also called H2M8306N
B18: H2aM8309N (antibody, mouse IgG2, V domains shown)
VH: not shown
VL: B2 VL
notes: also called H2M8309N

target: T1, recombinant human PD-L1 expressed with a C-terminal myc-myc-hexahistidine tag (hPD-L1-MMH) (human); assay: SPR, captured mAb, 25 C
T1 construct: Monomeric PD-L1 reagent; also called hPD-L1-MMH Monomer
Procedure: (§1) Binding association and dissociation rate constants (kₐ and kd, respectively), equilibrium dissociation constants and dissociation half-lives (KD and t_{1/2}, respectively) of antigen binding to purified anti-PD-L1 monoclonal antibodies were determined using a real-time surface plasmon resonance biosensor assay on a Biacore 4000 instrument. The Biacore sensor surface was either derivatized with polyclonal rabbit anti-mouse antibody (GE, #BR-1008-38) or with monoclonal mouse anti-human Fc antibody (GE, #BR-1008-39) to capture approximately 200-300 RUs of anti-PD-L1 monoclonal antibodies, expressed with either a mouse Fc or with human Fc, respectively. […] Different concentrations of PD-L1 reagents were injected over the anti-PD-L1 monoclonal antibody captured surface at a flow rate of 30 μL/min. The binding of the PD-L1 reagents to the captured monoclonal antibodies was monitored for 3 to 4 minutes while the dissociation of antibody bound PD-L1 reagents was monitored for 10 minutes in HBST running buffer (0.01 M HEPES pH 7.4, 0.15 M NaCl, 3 mM EDTA, 0.05% v/v Surfactant tween-20). Experiments were performed at either 25° C. or 37° C. Kinetic association (kₐ) and dissociation (kd) rate constants were determined by processing and fitting the data to a 1:1 binding model using Scrubber 2.0c curve fitting software. Binding dissociation equilibrium constants (KD) and dissociative half-lives (t_{1/2}) were then calculated from the kinetic rate constants as: KD (M)=kd/kₐ and t_{1/2} (min)=[In2/(60*kd)].

T1 sequence (chain, as listed by the source limits assumed): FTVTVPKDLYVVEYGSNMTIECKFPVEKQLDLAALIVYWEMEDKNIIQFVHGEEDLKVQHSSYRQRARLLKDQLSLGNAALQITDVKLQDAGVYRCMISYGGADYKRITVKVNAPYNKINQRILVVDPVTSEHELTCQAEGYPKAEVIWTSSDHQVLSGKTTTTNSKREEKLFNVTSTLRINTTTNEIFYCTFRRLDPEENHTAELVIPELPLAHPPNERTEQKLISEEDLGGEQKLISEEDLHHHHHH

Binder	Kd [nM]	koff [s⁻¹]	kon [M⁻¹ s⁻¹]	t1/2 [min]
B1	69.6	0.01	144000	1.2
B2	16.3	0.0104	642000	1.1
B3	3.5	0.00031	88600	37
B4	9.51	0.000722	75900	16
B5	0.0558	5.17e-05	925000	224
B6	421	0.0395	94000	0.3
B7	34.9	0.00359	103000	3.2
B8	0.238	0.000223	937000	52
B9	75.8	0.134	1.77e+06	0.1
B10	0.492	0.00039	792000	30
B11	165	0.0149	90200	0.8
B12	8.04	0.000383	47600	30
B13	0.321	0.000299	932000	39
B14	60.6	0.00479	79000	2.4
B15	22.1	0.0582	2.64e+06	0.2
B16	12.7	0.00218	172000	5.3

target: T2, recombinant human PD-L1 (amino acids 19-239 of NP_054862.1) with a C-terminal myc-myc-hexahistidine tag (human); assay: SPR (Biacore), mAb captured, 37C
T2 construct: also called hPD-L1-MMH; hPD-L1-MMH Monomer
Procedure: as §1

Binder	Kd [nM]	koff [s⁻¹]	kon [M⁻¹ s⁻¹]	t1/2 [min]
B17	172	0.031	180000	0.4
B18	29.7	0.0314	1.06e+06	0.4

target: T3, Human PD-L1 Dimer (human, UniProt Q9NZQ7 19-239); assay: SPR (Biacore), mAb captured, 37C
T3 construct: also called hPD-L1 dimer; hPD-L1-hFc
Procedure: as §1

T3 sequence (Q9NZQ7 19-239): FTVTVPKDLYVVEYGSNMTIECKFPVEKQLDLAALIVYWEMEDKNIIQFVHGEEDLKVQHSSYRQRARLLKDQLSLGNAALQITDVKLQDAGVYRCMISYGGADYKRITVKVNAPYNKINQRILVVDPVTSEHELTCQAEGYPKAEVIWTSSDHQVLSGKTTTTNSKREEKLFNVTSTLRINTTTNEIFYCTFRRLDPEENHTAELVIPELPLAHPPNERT

Binder	Kd [nM]	koff [s⁻¹]	kon [M⁻¹ s⁻¹]	t1/2 [min]
B17	0.417	0.000416	997000	28
B18	0.0376	0.000166	4.41e+06	70

target: T4, recombinant cynomolgus monkey PD-L1 with a C-terminal myc-myc-hexahistidine tag (cynomolgus monkey (Macaca fascicularis)); assay: SPR (Biacore), mAb captured, 37C
T4 construct: also called MfPD-L1-MMH; MfPD-L1-MMH Monomer
Procedure: as §1

T4 sequence (chain, as listed by the source limits assumed): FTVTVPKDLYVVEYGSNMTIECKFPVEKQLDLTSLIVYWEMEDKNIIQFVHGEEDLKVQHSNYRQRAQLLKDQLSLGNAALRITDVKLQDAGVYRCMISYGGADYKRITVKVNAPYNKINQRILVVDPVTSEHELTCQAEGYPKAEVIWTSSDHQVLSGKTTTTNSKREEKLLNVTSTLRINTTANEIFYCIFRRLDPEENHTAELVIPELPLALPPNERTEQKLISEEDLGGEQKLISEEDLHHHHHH

Binder	Kd [nM]	koff [s⁻¹]	kon [M⁻¹ s⁻¹]	t1/2 [min]
B17	134	0.0368	274000	0.3
B18	26.3	0.0281	1.07e+06	0.4

target: T3, Human PD-L1 Dimer; assay: SPR (Biacore), mAb captured, 25C
Procedure: as §1

Binder	Kd [nM]	koff [s⁻¹]	kon [M⁻¹ s⁻¹]	t1/2 [min]
B17	0.418	0.000309	739000	37
B18	0.0429	0.000144	3.36e+06	80

target: T4, recombinant cynomolgus monkey PD-L1 …; assay: SPR (Biacore), mAb captured, 25C
Procedure: as §1

Binder	Kd [nM]	koff [s⁻¹]	kon [M⁻¹ s⁻¹]	t1/2 [min]
B17	47.7	0.00788	165000	1.5
B18	14.9	0.013	870000	0.9
